Data on 17 molecules can be found in US20230094463A1 (TRUEBINDING, published 2023).

Assay [1] deals with T1, Human GAL3 protein (TrueBinding, QCB200349 / QCB200352; R&D Systems, 8259-GA) (human, UniProt P17931 2-250).
T1 construct: also called human galectin-3
The assay can be described thus: blocking ELISA (GAL3 coated; antibody + biotinylated ITGaV). (In general: An ELISA detects its analyte on a solid surface through an enzyme-linked reagent.)

Assay [2] deals with T1, Human GAL3 protein (TrueBinding, …). Put plainly: blocking ELISA (GAL3 coated; antibody + biotinylated ITGa3).
Assay [3] has the same target. Put plainly: blocking ELISA (GAL3 coated; antibody + biotinylated ITGb3).
The target in assay [4] is T2, Human Galectin-3 protein (Acro Biosystems, GA3-H5129) (human, UniProt P17931 2-250).
T2 construct: Bought protein; also called Gal3-ECD-His; Gal3-His; not shown: linker-spaced 6-histidine tag
T2 sequence (P17931 2-250): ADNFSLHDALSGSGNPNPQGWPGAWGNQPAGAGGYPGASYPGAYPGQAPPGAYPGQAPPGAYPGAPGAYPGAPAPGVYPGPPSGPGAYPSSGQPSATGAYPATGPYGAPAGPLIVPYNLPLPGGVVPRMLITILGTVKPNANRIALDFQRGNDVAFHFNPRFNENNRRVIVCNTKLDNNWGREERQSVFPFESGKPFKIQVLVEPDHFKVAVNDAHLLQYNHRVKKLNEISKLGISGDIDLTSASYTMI
Put plainly: ELISA, blocking of INSR binding to coated Gal3.

Assay [5] deals with T2, Human Galectin-3 protein (Acro …). The assay can be described thus: SPR (Biacore T200), antibody captured, Galectin-3 as analyte. A general note: SPR reads the build-up and loss of mass on a sensor chip optically.
The target is the same in assay [6]. The assay can be described thus: blocking ELISA (Gal3 coated; antibody 3 µg/mL + INSR).

T1 sequence (P17931 2-250 limits assumed): as the sequence (P17931 2-250) above

B1: F847C.10B9 (antibody, V domains shown)
VH: QIQLVQSGPEVKKPGETVKISCKASGYIFTNYGMNWVKQAPGKGLKWMGWINTYTGEPTYTDDFKGRFAFSLETSASTAYLQINNLKNEDTATYFCAKFGNYVGAMDYWGQGTSVTVSS
VL: DIRMTQSPSSLSASLGDTITITCHASQNINVWLSWYQQKPGNIPKLLIYKASNLHTGVPSRFSGSGSGTGFTLTISSLQPEDIATYYCQQGQSYPYTFGGGTKLELK
notes: also called 847.10B9
In the case of B1, the “percent blockade of GAL3-ITGaV interaction” value in assay [1] is above 90%. Besides, the “percent blockade of GAL3-ITGa3 interaction” value in assay [2] is above 90%. Further, the “percent blockade of GAL3-ITGb3 interaction” value in assay [3] is above 90%.

B2: F847C.26F5 (antibody, V domains shown)
VH: QIQLVQSGPEVKKPGETVKISCKASGYIFTNYGMNWVKQAPGKGLKWMGWINTYTGEPTYTDDFKGRFAFSLETSASTAYLQINNLKNEDTATYFCAKFGNYVGAMDYWGQGTSVTVSS
VL: EIKMNQSPSSLSASLGDTITITCHASQNINVWLSWYQQKPGNIPKLLIYKASNLHTGVPSRFSGSGSGTGFTLTISSLQPEDIATYYCQQGQSYPYTFGGGTKLELK
notes: also called 847.26F5
For the molecule B2, the “percent blockade of GAL3-ITGaV interaction” value in assay [1] is above 90%. Further, the “percent blockade of GAL3-ITGa3 interaction” value in assay [2] was above 90%. Also, the “percent blockade of GAL3-ITGb3 interaction” value in assay [3] was above 90%.

B3: F847C.12F12 (antibody, V domains shown)
VH: QIQLVQSGPELKKPGETVKISCKASGYTFTNYGMNWVKQAPGKGLKWMGWINTYTGEPTYVDDFKGRFAFSLETSASTAYLRINNLKNEDTATYFCAKFGNYVGAMDYWGQGTSVTVSS
VL: DIQVIQSPSSLSASLGDTITITCHASQNINVWLSWYQQKPGNIPKLLIYKASNLHTGVPSRFSGSGSGTGFTLTISSLQPEDIATYYCQQGQSYPYTFGGGTKLELK
notes: anti-Gal3 antibody; also called 847.12F12; 84712F12
Regarding B3, in assay [1], the “percent blockade of GAL3-ITGaV interaction” value was above 90%. In addition, in assay [2], the “percent blockade of GAL3-ITGa3 interaction” value was above 90%. The “percent blockade of GAL3-ITGb3 interaction” value in assay [3] is above 90%.

B4: 13H12.2F8 (antibody, V domains shown)
VH: QIQLVQSGPELKKPGETVKISCKASGYTFTTYGMSWVKQAPGKGLKWMGWINTYSGVPTYADDFKGRFAFSLETSASTAYLQINNLKNEDTATYFCAVPYEYDGAYWGQGTLVTVSA
VL: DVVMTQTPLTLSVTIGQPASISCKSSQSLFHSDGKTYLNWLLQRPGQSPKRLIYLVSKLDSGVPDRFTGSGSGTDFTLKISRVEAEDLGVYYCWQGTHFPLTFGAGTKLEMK
Broadly, the Kd is the equilibrium constant for the complex coming apart. As for B4, the “Gal3-INSR Blocking @ 3 µg/mL” value in assay [4] is 97%. In addition, the Kd in assay [5] was determined as 6.07 nM.

B5: 3B11.2G2 (antibody, V domains shown)
VH: QIQLVQSGPELKKPGETVKISCKTSGYKFKTYVMSWVKQAPGKALKWMGWINTYSGVPTYADDFKGRFAFSLETSASTAYLEIINLKNEDTATYFCARDGNYGDPMDYWGQGTSVTVSS
VL: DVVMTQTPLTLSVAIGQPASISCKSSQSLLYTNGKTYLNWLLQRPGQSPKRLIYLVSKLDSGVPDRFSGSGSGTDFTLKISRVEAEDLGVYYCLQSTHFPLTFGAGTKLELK
B5: the “Gal3-INSR binding remaining, % of unblocked sample” value in assay [6] was below 5%. Besides, in assay [4], the “Gal3-INSR Blocking @ 3 µg/mL” value came out at 96%. In addition, the Kd in assay [5] is below 1 nM.

B6: 7D8.2D8 (antibody, V domains shown)
VH: EVQLVESGGGLVKPGGSLKLSCAASGFTFSSYAMSWVRQTPEKRLEWVATISDGGIYTYYPDNVKGRFTISRDNAKNNLFLQMSHLKSEDTAMYYCVRDGGYWGQGTTLTVSS
VL: DVLMTQTPLSLPVSLGDQASISCRSSQSIVHSNGNTYLEWYLQKPGQSPKLLIYKVSNRFSGVPDRFSGSGSGTDFTLKISRVEAEDLGVYYCFQGSHVPLTFGAGTKLELK
For the molecule B6, in assay [4], the “Gal3-INSR Blocking @ 3 µg/mL” value stood at 75%. This molecule showed a Kd in assay [5] of 2.49 nM.

B7: 15F10.2D6 (antibody, V domains shown)
VH: EVQLVESGGGLVKPGGSLKLSCAASGFAFSSYAMSWVRQTPEKRLEWVATISDGGVYTYYTDHVKGRFTISRDNAEDNLYLQMSHLKSEDTAMYYCVRDGGYWGQGTTLTVSS
VL: DVLMTQTPLSLPVSLGDQASISCRSSQSIVHNNGNTYLEWYLQKPGQSPKLLIYKVSNRFSGVPDRFSGSGSGTDFTLKISRVEAEDLGVYYCFQGSHVPLTFGGGTKLELK
Take B7: in assay [4], the “Gal3-INSR Blocking @ 3 µg/mL” value amounted to 82%. Moreover, binding in assay [5] was characterised by a dissociation constant (Kd) of 2.06 nM.

B8: F847C.11B1 (antibody, V domains shown)
VH: EVQLQQSGPELVKPGASVKISCKASGNTFTDHNMHWVKQSHGKSLEWIGYIYPYNGGTGYNQKFKSKATLTVDNSSSTVYMELRSLTSEDSAVYYCARGEYDYLAWFAYWGQGTLVTVSA
VL: EIVLTQSPASLSVTTGEKVTIRCITSIDIDDDMNWYQQKPGEPPKLLISEGNTLRPGVPSRFSSSGYGTDFVFTIENTLSEDVADYYCLQSDNKPLTFGAGTKLELKR
notes: anti-Gal3 antibody; also called 847.11B1
B8: the “percent blockade of GAL3-ITGaV interaction” value in assay [1] is below 30%. Moreover, the “percent blockade of GAL3-ITGa3 interaction” value in assay [2] is below 35%. The “percent blockade of GAL3-ITGb3 interaction” value in assay [3] was below 10%.

B9: F847C.4B10 (antibody, V domains shown)
VH: EVQLVETGGGLVKPGGSLKLSCAASGFTFSSYAMSWVRQTPEKRLEWVASISSGGSTYYPDSVKGRFTISRDNARNILYLQMSSLRSEDTAMYYCTRFTTVVEMDYWGQGTSVTVSS
VL: QAVVTQESALTTSPGETVTLTCRSSTGAVTTSNYANWVQEKPDHLFTGLIGGTNNRAPGVPARFSGSLIGDKAALTITGAQTEDEAIYFCALWYSNHLVFGGGTKLTVLR
notes: anti-Gal3 antibody; also called 847.4B10
For B9, the “percent blockade of GAL3-ITGa3 interaction” value in assay [2] was above 90%.

B10: 4G2.2G6 (antibody, V domains shown)
VH: QIQLVQSGPDLKKPGETVKISCKASGYTFTTYVMSWVKQAPGKDLKWMGWINTHSGVPTYADDFKGRFDFSLETSANTAFLQINNLKNEDTATYFCTRDGNDGDAMDNWGQGTSVTVSS
VL: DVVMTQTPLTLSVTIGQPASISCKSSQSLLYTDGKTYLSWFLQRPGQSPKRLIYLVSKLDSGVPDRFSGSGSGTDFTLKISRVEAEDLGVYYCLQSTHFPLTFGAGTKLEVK
For B10, the “Gal3-INSR binding remaining, % of unblocked sample” value in assay [6] is below 5%. The “Gal3-INSR Blocking @ 3 µg/mL” value in assay [4] came to 100%. In assay [5], this molecule displayed a Kd below 1 nM.

B11: F846TC.14A2 (antibody, V domains shown)
VH: QIQLVQSGPELKKPGETVKISCKASGYTFTNYGMNWVKQAPGKGLKWMGWINTYTGEPTYAGDLKGRFAFSLETSASTAYLQINNLKNEDTATYFCVRYTMDYWGQGTSVTVSS
VL: QAVVTQESALTTSPGETVTLTCRSSTGAVTTSNYANWVQEKPDHLFTGLIGGINNRVPGVPARFSGSLIGDKAALTITGAQTEDEAIYFCALWYSNHWVFGGGTKLTVL
notes: anti-Gal3 antibody; also called 846T.14A2
B11: the “percent blockade of GAL3-ITGaV interaction” value in assay [1] was above 90%. In addition, the “percent blockade of GAL3-ITGa3 interaction” value in assay [2] is above 90%. The “percent blockade of GAL3-ITGb3 interaction” value in assay [3] was above 90%.

B12: F847.14H4 (847.14H4) (antibody, V domains shown)
VH: QIQLVQSGPELTKPGETVKISCKASGYTFTDYGMNWVRQAPGETLKWMGWINTYTGEPTYADDFKGRFAFSLESSASTAYLQINNLKNEDVATYFCARYPMDYWGQGTSVTVSS
VL: QAVVTQESALTTSPGETVTLTCRSSTGAVTTSNYANWVQEKPDHLFTGLIGGTNNRAPGVPARFSGSLIGDKAALTITGAQTEDEAIYFCALWYSNHLVFGGGTKLTVL
notes: anti-Gal3 antibody
Regarding B12, the “percent blockade of GAL3-ITGaV interaction” value in assay [1] was below 30%. Moreover, the “percent blockade of GAL3-ITGa3 interaction” value in assay [2] was below 35%. In addition, the “percent blockade of GAL3-ITGb3 interaction” value in assay [3] was below 10%.

B13: F846C.1B2 (antibody, V domains shown)
VH: QIQLVQSGPELKKPGETVKISCKASGYTFTNYGMNWVKQAPGKGLKWMGWINTYTGEPSYADDFKGRFAFSLETSASTAYLQINNLKNEDMATYFCARWGGYAGDYYAMDFWGQGTSVTVSS
VL: NIWLTQSPSSLAVSAGEMVTMTCKSSQSVLYSSNQKNYLAWYQQKPGQSPKLLIYWASTRESGVPDRFTGSGSGTDFSLTISSVQAEDLAVYYCHQYLSSLTFGAGTKLELK
notes: also called 846.1B2
As to B13, in assay [1], the “percent blockade of GAL3-ITGaV interaction” value is above 90%. In addition, the “percent blockade of GAL3-ITGa3 interaction” value in assay [2] was above 90%. For the same molecule, in assay [3], the “percent blockade of GAL3-ITGb3 interaction” value was above 90%.

B14: F846C.2H3 (antibody, V domains shown)
VH: QIQLVQSGPELKKPGETVKISCKASGYTFTNYGMNWVKQAPGKGLKWMGWINTYTGEPSYADDFKGRFAFSLETSASTAYLQINNLKNEDMATYFCARWGGYDGDYYAMDYWGQGTSVTVSS
VL: NIMMTQSPSSLAVSAGEKVTMSCKSSQSVLYSSNQKNYLAWYQQKPGQSPKLLIYWASTRESGVPDRFTGSGSGTDFTLTISSVQPEDLAVYYCHQYLSSLTFGAGTKLELK
notes: also called 846.2H3
B14: the “percent blockade of GAL3-ITGaV interaction” value in assay [1] is above 90%. In addition, the “percent blockade of GAL3-ITGa3 interaction” value in assay [2] is above 90%. Besides, in assay [3], the “percent blockade of GAL3-ITGb3 interaction” value was above 90%.

B15: F846C.1H12 (antibody, V domains shown)
VH: QIQLVQSGPELKKPGETVKISCKASGYTFTNFGMNWVKQAPGKGLKWMGWINTYTGEPSYADDFKGRFAFSLETSASTAYLQINNLKNEDIATYFCARWGGYAGDYYAMDYWGQGTSVTVSS
VL: NIMMTQSPSSLAVSAGQKVTMSCKSSQSVLYSSSQKNYLAWYQQKPGQSPKLLIYWASTRESGVPDRFSGSGSGTDFTLTISSVQPEDLAVYYCHQYLSSLTFGAGTKLELKR
notes: also called 846.1H12
Take B15: the “percent blockade of GAL3-ITGa3 interaction” value in assay [2] is above 90%. Moreover, in assay [3], the “percent blockade of GAL3-ITGb3 interaction” value is above 90%.

B16: F846TC.16B5 (antibody, V domains shown)
VH: QIQLVQSGPELKKPGETVKISCKASGYTFTNYGMNWVKQAPGKGLKWMGWINTYTGEPAYADDFKGRFAFSLETSASTAYLQINNLKNEDMATYFCARWGGYDGDYYAMDYWGQGTSVTVSS
VL: NIMMTQSPSSLAVSAGEKVTMSCKSSQSVLYSSNQKNYLAWYQQKPGQSPKLLIYWASTRESGVPDRFTGSGSGTDFTLTISSVQAEDLAVYYCHQYLSSLTFGAGTKLELKR
notes: also called 846T.16B5
As for B16, the “percent blockade of GAL3-ITGaV interaction” value in assay [1] was above 90%. In assay [2], the “percent blockade of GAL3-ITGa3 interaction” value was above 90%. Also, the “percent blockade of GAL3-ITGb3 interaction” value in assay [3] is above 90%.

B17: F846C.1H5 (antibody, V domains shown)
VH: EVQLLESGGGLVKPGGSLKLSCAASGFTFSSYAMSWVRQTPEKRLEWVASISSGGDTYYPDSVKGRFTISRDNARNILYLQMSSLRSEDTAMYYCASYGNSLFDYWGQGTTLTVSS
VL: DVVMTQTPLSLPVSLGDQASISCRSSQSLVHNSGNTYLHWYLQRPGQSPNLLIYKVSNRFSGVPDRFSGSGSGTDFTLKISRVAAEDLGVYFCSQSTHVPPTFGGGTKLEIK
notes: anti-Gal3 antibody; also called 846.1H5
Turning to B17, the “percent blockade of GAL3-ITGa3 interaction” value in assay [2] was above 90%.
